# Measured values from patent publication US20240317834A1, “COMPOSITIONS AND METHODS FOR NEUROLOGICAL DISEASES” (CODA BIOTHERAPEUTICS, INC., priority 2020, published 2024).
# B1: CODA952: engineered chimeric LGIC receptor, Y140I in SEQ ID NO: 33 (protein)
# chain: MRCSPGGVWLALAASLLHVSLQGEFQRKLYKELVKNYNPLERPVANDSQPLTVYFSLSLLQIMDVDEKNQVLTTNIWLQMSWTDHYLQWNVSEYPGVKTVRFPDGQIWKPDILLYNSADERFDATFHTNVLVNSSGHCQILPPGIFKSSCPMDLKNFPMDVQTCKLKFGSWSYGGWSLDLQMQEADISGYIPNGEWDLVGIPGKRSERFYECCKEPYPDVTFTVTMRRRMGYYLIQMYIPSLLIVILSWISFWINMDAAPARVGLGITTVLTMTTQSSGSRASLPKVSYVKAIDIWMAVCLLFVFSALLEYAAVNFVSRQHKELLRFRRKRRHHKSPMLNLFQEDEAGEGRFNFSAYGMGPACLQAKDGISVKGANNSNTTNPPPAPSKSPEEMRKLFIQRAKKIDKISRIGFPMAFLIFNMFYWIIYKIVRREDVHNQ
# modifications: synthetic sequence of chimeric LGIC
# Test system: Lenti-X 293T cells
# Test: YFP fluorescence quenching anion reporter plate reader assay of engineered receptors stimulated with acetylcholine or a non-native ligand
# Assay type: cell-based
# How it was run: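 YFP quench was followed for about 1 min 43 s after ligand delivered in iodide-based ECS, pH 7.2. Values are end-of-read fluorescence (last 10 s) divided by the pre-ligand baseline (15 s). Cells were LX293T, transfected with receptor DNA a day before the assay.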
molecule,measurement,setting,value
B1,YFP fluorescence quenching using CNL001,"1 nM CNL001, first column",0.368%
same,YFP fluorescence quenching using CNL001,"1 nM CNL001, second column",−1.976%
same,YFP fluorescence quenching using TC-5619/Bradanicline,3 nM brd,−2.45%
same,YFP fluorescence quenching using Varenicline,"3 nM var, first column",−22.522
same,YFP fluorescence quenching using Varenicline,"3 nM var, second column",−18.173
same,YFP fluorescence quenching using CNL001,"10 nM CNL001, first column",−3.923%
same,YFP fluorescence quenching using CNL001,"10 nM CNL001, second column",4.348%
same,YFP fluorescence quenching using TC-5619/Bradanicline,30 nM brd,66.97%
same,YFP fluorescence quenching using Facinicline,30 nM fac,−8.83
same,YFP fluorescence quenching using Varenicline,"30 nM var, first column",−15.306
same,YFP fluorescence quenching using Varenicline,"30 nM var, second column",−12.832
same,YFP fluorescence quenching using CNL001,"50 nM CNL001, first column",74.107%
same,YFP fluorescence quenching using CNL001,"50 nM CNL001, second column",75.866%
same,YFP fluorescence quenching using ABT-126,50 nM abt,−12.34%
same,YFP fluorescence quenching using CNL001,"100 nM CNL001, first column",80.323%
same,YFP fluorescence quenching using CNL001,"100 nM CNL001, second column",81.996%
same,YFP fluorescence quenching using CNL002,100 nM CNL002,32.58%
same,YFP fluorescence quenching using ABT-126,100 nM abt,−11.57%
same,YFP fluorescence quenching using AZD-0328,100 nM azd0328,−12.96%
same,YFP fluorescence quenching using ABT-126,300 nM abt,−5.21%
same,YFP fluorescence quenching using AZD-0328,300 nM azd0328,−13.21%
same,YFP fluorescence quenching using TC-5619/Bradanicline,300 nM brd,78.48%
same,YFP fluorescence quenching using Facinicline,300 nM fac,51.6
same,YFP fluorescence quenching using Varenicline,"300 nM var, first column",−14.671
same,YFP fluorescence quenching using Varenicline,"300 nM var, second column",−17.016
same,YFP fluorescence quenching using Varenicline,"500 nM var, first column",−16.713
same,YFP fluorescence quenching using Varenicline,"500 nM var, second column",−18.893
same,YFP fluorescence quenching using CNL001,"1 uM CNL001, first column",83.489%
same,YFP fluorescence quenching using CNL001,"1 uM CNL001, second column",82.208%
same,YFP fluorescence quenching using CNL002,1 uM CNL002,69.08%
same,YFP fluorescence quenching using ABT-126,1 uM abt,3.93%
same,YFP fluorescence quenching using TC-6987,1 uM tc6987,6.03
same,YFP fluorescence quenching using Varenicline,"1 uM var, first column",−15.847
same,YFP fluorescence quenching using Varenicline,"1 uM var, second column",−16.236
same,YFP fluorescence quenching using TC-6987,10 uM tc6987,2.25
same,YFP fluorescence quenching using CNL002,30 uM CNL002,73.28%
same,YFP fluorescence quenching using AZD-0328,30 uM azd0328,68.5%
same,YFP fluorescence quenching using Facinicline,30 uM fac,71.01
same,YFP fluorescence quenching using TC-6987,500 uM tc6987,−0.24
same,"percent quench of YFP fluorescence, 30 nM TC-6683",TC-6683 30 nM,−27.7%
same,"percent quench of YFP fluorescence, 300 nM TC-6683",TC-6683 300 nM,−26.87%
same,"percent quench of YFP fluorescence, 3 uM TC-6683",TC-6683 3 uM,−31.2%
same,"percent quench of YFP fluorescence, 30 uM TC-6683",TC-6683 30 uM,−33.12%
same,"percent quench of YFP fluorescence, 100 uM TC-6683",TC-6683 100 uM,−24.67%
same,"percent quench of YFP fluorescence, 10 uM ach",acetylcholine 10 uM,−1.97%
same,"percent quench of YFP fluorescence, 100 uM ach",acetylcholine 100 uM,2.79%
same,"percent quench of YFP fluorescence, 1 mM ach",acetylcholine 1 mM,58.81%
same,"percent quench of YFP fluorescence, 3 mM ach",acetylcholine 3 mM,66.9%
